Target: the molecule itself
Test: crystal structure

B1: Ag(I)-bound periplasmic sensor domain of E. coli histidine kinase CusS, CusS(39-187) (domain or fragment, UniProt P77485 39-187, looked up)
chain: VKVHFAEQDINDLKEISATLERVLNHPDETQARRLMTLEDIVSGYSNVLISLADSQGKTVYHSPGAPDIREFTRDAIPDKDAQGGEVYLLSGPTMMMPGHGHGHMEHSNWRMINLPVGPLVDGKPIYTLYIALSIDFHLHYINDLMNKL
- stoichiometry N: 2
